Measured values published in the supplement of paper PMC10567573.
± gives the standard deviation.

Assay: protein stability index of a GFP-peptide fusion (GPS, HEK-293T) (PSI 1-6); higher = more stable
Conditions: c terminus: a fixed tail appended
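Further: 24-mer peptide tiles fused after GFP, lentivirally expressed, FACS-sorted into six equal bins by GFP/DsRed ratio, decoded by Illumina sequencing, PSI is the read-weighted mean bin number.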

Sequence | protein stability index (treatment: DMSO) | protein stability index (treatment: MLN4924 1 uM, 8 h)
KESSPSGSKSQRYSGAYGASVSDE [CHCHD3] | 5.31 ± 0.5 | 4.99 ± 0.12
KRLREEEAARLFKQIVSAVAHCHQ [TRIB1] | 2.4 ± 0.36 | 2.4 ± 2
QACARNILVQTPESESPQSHRAAG [TRIM9] | 4.46 ± 0.16 | 4.5 ± 0.27
MLKFLAKGEVPKGSCEDEPMDSTM [ATE1] | 4.22 ± 0.3 | 4.36 ± 0.092
LNECVGTAYWALAGSIGGLFFAVG [SLC22A15] | 3.19 ± 1.4 | 3.72 ± 0.21
QARHQLVLTAVDGGTPARSGTTLI [PCDHGC5] | 3.18 ± 0.083 | 3.15 ± 0.38
FEQTPALTKHEWTEALGCDPPLSQ [ZNF8] | 4.56 ± 0.26 | 4.6 ± 0.13
RMPLLTPRYITDVIDAEPFIRCSL [KLHL12] | 2.27 ± 0.28 | 1.84 ± 0.52
VDLELFPSPDMECADVPLLTPSSK [ETS1] | 4.07 ± 0.24 | 4.05 ± 0.2
METSPSEEDSFYRSSYPQQQGLGA [TBX5] | 4.37 ± 0.073 | 4.47 ± 0.17
KKKSILMKQLQQQQHSDKTSLQGL [ISL2] | 3.86 ± 0.2 | 4.04 ± 0.27
SEAEEALYLIAKRNRKLKCTFSLT [SLC22A15] | 2.52 ± 0.15 | 2.56 ± 0.12
AELNKEVSTNTAMIQTSKTEITEL [KRT13] | 5.26 ± 0.14 | 5.18 ± 0.079
LARPECLFLLLGHGASPGLRDGGG [ANKRD9] | 2.29 ± 0.54 | 2.19 ± 0.23
KKLTGGANWQPKVAPATWSAGVPP [SNAP91] | 3.27 ± 0.18 | 3.34 ± 0.14
FSTGIKMGQHISLAPIHKLEEALY [MNAT1] | 2.28 ± 0.48 | 2.08 ± 0.26
NLSKTQNMERFGEDNLEDDDVEMK [CDC14A] | 5.4 ± 0.061 | 5.4 ± 0.12
VVETINAAIGVTTSPVLPSLIQLL [HACD3] | 2.89 ± 0.74 | 2.81 ± 0.4
SERPLDFLDLERPPTTPQNEEIRA [MFF] | 5.29 ± 0.39 | 5.55 ± 0.15
EEAVTVLEDLESELDDPGQPVSLR [ZNF24] | 5.58 ± 0.24 | 5.47 ± 0.21
SPSKTDGKELAGTMDGEGTLFQTE [PBXIP1] | 5.31 ± 0.24 | 5.44 ± 0.3
RPWADTCSSSGKDGNLCLHVPNPP [HESX1] | 3.48 ± 0.14 | 3.81 ± 0.19
QIKTLLALSCHEQEMVVSSLVIGA [SLC2A12] | 3.78 ± 0.47 | 3.1 ± 0.55

Sequence | protein stability index (treatment: DMSO) | protein stability index (treatment: MLN4924 1 uM, 8 h)
SFLNVTKSSLIWSYPAGSLTFPVR [TRIM43] | 1.89 ± 0.045 | 2.17 ± 0.16
GCGYGCQLHHVVYCFMIAYGTQRT [FUT8] | 3.19 ± 0.45 | 3.06 ± 0.57
LPPSMERGYPPPRDSYSSSSRGAP [RBMX] | 4.5 ± 0.17 | 4.53 ± 0.2
LTAQGQQFHCHKAVLASCSQYFRS [KLHL14] | 2.27 ± 0.25 | 2.37 ± 0.33
EGYILREDGKTCRRKDVCQAIDHG [MATN2] | 4.31 ± 0.63 | 4.44 ± 0.22
PLGLEVDQFLEDVRLQERTSGGLL [NOP53] | 4.42 ± 0.14 | 4.47 ± 0.12
KSFILDFMLRYLYSQKESGHSNWL [ATL3] | 2.88 ± 0.33 | 3.07 ± 0.48
ERSRGRSISRGRHARTHPQTALLE [MATN2] | 4.31 ± 0.53 | 4.72 ± 0.3
RSLSERTVDKCFGRKKYDIDPRNG [SPATS1] | 4.39 ± 0.24 | 4.73 ± 0.33
DQFIPIWTVANMEEIKKLTTDPDL [LARP4] | 3.97 ± 0.12 | 3.82 ± 0.42
PDPSHSPSDKVGRADAHLGSSSVA [TOR1AIP2] | 4.98 ± 0.37 | 4.68 ± 0.95
SAPEQELLVQDATPVSNSLLPEKA [GFOD1] | 5.29 ± 0.28 | 5.4 ± 0.26
DLPWFRTLSWYFLLCVNYFFYGET [CDS2] | 3.95 ± 0.26 | 3.23 ± 0.97
AVQLRHAWNPEDRSLNVFVKDDDR [SPSB4] | 4.21 ± 0.25 | 4.24 ± 0.26
TLSAELVPWLNLKKQDENEGIKVE [CEP70] | 4.33 ± 0.057 | 4.22 ± 0.098
ALKLIIRLFLVEDLVDSLKLAVFM [RTN3] | 3.69 ± 0.17 | –
EDTPSDNDSGICMSPESYLGSPQH [ATF4] | 4.66 ± 0.36 | 4.83 ± 0.22
ARNIGFKVNSKKMLGKYNTPVSYR [ACSBG2] | 2.32 ± 0.37 | 2.55 ± 0.14
NTELQDVQRIMVANIEEVLQRGEA [SEC22B] | 4.7 ± 0.36 | 4.71 ± 0.25
FRNIKQEPFSARVLVLCVFNSILP [SOAT1] | 2.9 ± 0.35 | 2.87 ± 0.59
EQWDRLLVLYPTSLAIFSEELDGL [PLEKHN1] | 2.37 ± 0.3 | 2.44 ± 0.43
GRDGYDYDGYRLRVEFPRSGRGTG [SRSF1] | 3.17 ± 0.37 | 3.26 ± 0.36
HRQETVECLKKFNARRKLKGAILT [CAMK2B] | 2.79 ± 0.24 | 2.98 ± 0.29

Sequence | protein stability index (treatment: DMSO) | protein stability index (treatment: MLN4924 1 uM, 8 h)
EALGFSWHDTCFVCAICQINLEGK [PDLIM7] | 2.48 ± 0.82 | 1.63 ± 0.26
EEINKNISDFGRQQLLPPFPSLHQ [EHMT1] | 3.08 ± 0.27 | 3.64 ± 0.4
KMREFTKTIKRPFGVKYNPYTRSI [TPH1] | 2.25 ± 0.21 | 2.31 ± 0.17
STEVQAHPYSTTFQESASTPETRA [TEKT4] | 5.23 ± 0.17 | 5.16 ± 0.1
SEASIASNLQAMSTQMFQTKRCFR [SMG5] | 3.94 ± 0.13 | 4.08 ± 0.15
DATPPVSPINMEDQERIKVERKRL [JUNB] | 5.53 ± 0.2 | 5.36 ± 0.4
KILRSMSRKVTTNKLLLSIIILLE [VTI1B] | 2.48 ± 0.53 | 2.32 ± 0.42
MKNKNNVTEFILLGLTQNPEGQKV [OR4A15] | 2.44 ± 0.31 | 2.99 ± 0.11
KTKYILLMDIVPADDHRYKFADNK [TBX5] | 2.08 ± 0.22 | 2.3 ± 0.42
AAGMRFPLPEAIDPDVGVNSLQSY [PCDHGA10] | 3.9 ± 0.2 | 4.12 ± 0.31
QAQQKKAPAKKANSTTTAGRDHFL [BRD3] | 4.44 ± 0.48 | 4.62 ± 0.15
SDASSHANAAKHTQDSARVNPQDG [EHMT1] | 5.27 ± 0.22 | 5.36 ± 0.21
KKAYDYFQAKKIPIVSSLADPLDT [PDZK1] | 3.64 ± 0.23 | 3.88 ± 0.35
ASCCIDPREDGASVNDQCGFGVLR [TSPAN10] | 3.44 ± 0.14 | 3.83 ± 0.31
LSPDIMKDAYVQKLVKVCNGHDCW [TENT5D] | 2.41 ± 0.72 | 2.35 ± 0.17
FLEALSSRYLGDSGLDDFFLDIDT [SERTAD3] | 2.4 ± 0.4 | 2.41 ± 0.39
AKEMSVPFYTSRIDEVLLHQDVDL [GFOD1] | 3.74 ± 0.59 | 3.88 ± 0.35
ERSDLEEDNEREGTENGAIDAVPV [ZC3H15] | 5.5 ± 0.19 | 5.5 ± 0.33
RCCGAASYQDWQQNLYFNCSSPGV [TSPAN10] | 2.37 ± 0.42 | 2.33 ± 0.66
EKETQIIASIGRHRYIAYMANQEA [IQUB] | 3.07 ± 0.32 | 2.88 ± 0.46
GQPSEPEHGPSPGQDTFCQGKADG [CHIT1] | 5.45 ± 0.32 | 5.63 ± 0.23
KPPETSVPVVTPTASTAPPVPATA [SNAP91] | 5.34 ± 0.35 | 5.37 ± 0.18
SSDHLFLFGGFTTDKQPLSDAWTY [KLHDC2] | 2.25 ± 0.61 | 2.23 ± 0.063

Sequence | protein stability index (treatment: DMSO) | protein stability index (treatment: MLN4924 1 uM, 8 h)
NALKDARAKLDELEGALHQAKEEL [KRT71] | 5.06 ± 0.38 | 4.97 ± 0.095
DEMYEVRIAAVEALCMLAQSSPSF [INTS4] | 2.69 ± 0.81 | 2.31 ± 0.11
NLSRDVTEALILQLFSQIGPCKNC [TIA1] | 2.48 ± 0.42 | 2.91 ± 0.6
SKESSKEKKLTVRQDLEDRYAEHV [C22orf31] | 5.09 ± 0.27 | 5.16 ± 0.1
YYLCGFCPAELFTNTRSDLDVFGR [LUC7L3] | 2.26 ± 0.25 | 2.04 ± 0.21
SARYLSQCQEAEQARAELTAQHQR [FBF1] | 4.76 ± 0.28 | 4.57 ± 0.15
NRNQRIVQLIQDTRIHILPSMNPD [CPN1] | 2.95 ± 0.12 | 3 ± 0.25
GFSSGRHRWQVDLQLGDGGGCTVG [TRIM15] | 2.93 ± 0.29 | 3.07 ± 0.27
AARISNKGKFSTDTKGKPTSRTQV [ZC2HC1A] | 3.91 ± 0.38 | 4.19 ± 0.39
HWKTWLAIKCSPSLHVDDRERMEL [RIPK4] | 2.38 ± 0.26 | 2.53 ± 0.58
LSRYQNELAGVDTELLAERFYYQA [SMG5] | 2.7 ± 0.51 | 2.81 ± 0.43
ALADVEVKYIVERTMLDFPQHVSS [NLN] | 2.38 ± 0.36 | 2.39 ± 0.16
EVEVVEEAKCCCFFKRKRKKTAQR [CSNK1G1] | 4.4 ± 0.41 | 4.45 ± 0.12
FAKKLVDRTWTLCGTPEYLAPEVI [PRKX] | 2.63 ± 0.8 | 2.29 ± 0.19
QNRVFAYLCKRVPHTVLDRQLLCL [CEP70] | 2.46 ± 0.76 | 2.46 ± 0.59
FELEDSNEIFTQLYRTLFSVINNG [PDS5B] | 2.15 ± 0.47 | 2.41 ± 0.23
LESIPSLSQSPEPGRRGDPDTAPP [RTN2] | 5.49 ± 0.12 | 5.535 ± 0.045
SEMWDIFLVRLLMAMAVMLYYSNF [MFSD9] | 3.25 ± 0.38 | 3.36 ± 0.33
VDPIGHLYIFATCLGLSYDGLLGD [MAGEA3] | 3.06 ± 0.37 | 3.21 ± 0.34
DFLAVLSDYPSPDISPPIFRRGEK [SLA] | 2.63 ± 0.18 | 2.75 ± 0.51
ERSDPVEQGKPVIPAAVLAGFTGS [ETS2] | 4.59 ± 0.23 | 4.7 ± 0.31
